In article PMC3152347:
Like-named read-outs stand apart in the source and are kept apart here.

T1: endogenous HSF1 of CEM-GFP cells (human (endogenous in CEM-GFP)), Q00613
T1 chain: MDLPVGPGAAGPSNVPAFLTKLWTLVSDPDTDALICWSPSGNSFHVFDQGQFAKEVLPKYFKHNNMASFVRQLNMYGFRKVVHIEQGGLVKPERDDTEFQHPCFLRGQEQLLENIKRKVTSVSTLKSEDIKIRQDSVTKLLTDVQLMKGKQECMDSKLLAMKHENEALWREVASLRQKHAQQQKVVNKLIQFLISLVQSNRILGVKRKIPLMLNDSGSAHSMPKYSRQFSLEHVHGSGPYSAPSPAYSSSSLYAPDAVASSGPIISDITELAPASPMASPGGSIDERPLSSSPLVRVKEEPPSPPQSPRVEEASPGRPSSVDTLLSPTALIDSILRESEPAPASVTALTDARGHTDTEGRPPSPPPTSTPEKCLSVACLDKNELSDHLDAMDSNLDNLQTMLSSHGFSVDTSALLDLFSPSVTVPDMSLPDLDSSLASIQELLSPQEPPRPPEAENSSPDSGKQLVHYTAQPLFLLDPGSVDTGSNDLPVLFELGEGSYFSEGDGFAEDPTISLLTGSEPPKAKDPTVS

B1: P3 (1st and 2nd Sp1 site) (dsDNA)
DNA 1: TGGGCGGGACTGGGGAGTGGCG
DNA 2: CGCCACTCCCCAGTCCCGCCCA
B2: P2 (NF-kB and 3rd Sp1 site, LTR -91 to -69) (dsDNA)
DNA 1: GGGACTTTCCAGGGAGGTGTGGC
DNA 2: GCCACACCTCCCTGGAAAGTCCC
B3: endogenous HSF1 of CEM-GFP cells, Q00613 1-529 (natural protein)
chain: MDLPVGPGAAGPSNVPAFLTKLWTLVSDPDTDALICWSPSGNSFHVFDQGQFAKEVLPKYFKHNNMASFVRQLNMYGFRKVVHIEQGGLVKPERDDTEFQHPCFLRGQEQLLENIKRKVTSVSTLKSEDIKIRQDSVTKLLTDVQLMKGKQECMDSKLLAMKHENEALWREVASLRQKHAQQQKVVNKLIQFLISLVQSNRILGVKRKIPLMLNDSGSAHSMPKYSRQFSLEHVHGSGPYSAPSPAYSSSSLYAPDAVASSGPIISDITELAPASPMASPGGSIDERPLSSSPLVRVKEEPPSPPQSPRVEEASPGRPSSVDTLLSPTALIDSILRESEPAPASVTALTDARGHTDTEGRPPSPPPTSTPEKCLSVACLDKNELSDHLDAMDSNLDNLQTMLSSHGFSVDTSALLDLFSPSVTVPDMSLPDLDSSLASIQELLSPQEPPRPPEAENSSPDSGKQLVHYTAQPLFLLDPGSVDTGSNDLPVLFELGEGSYFSEGDGFAEDPTISLLTGSEPPKAKDPTVS
B4: P1 (both NF-kB sites of LTR) (dsDNA)
DNA 1: GGGACTTTCCGCTGGGGACTTTCC
DNA 2: GGAAAGTCCCCAGCGGAAAGTCCC
B5: P4 (2nd and 3rd Sp1 site) (dsDNA)
DNA 1: GGGAGGTGTGGCCTGGGCGGGAC
DNA 2: GTCCCGCCCAGGCCACACCTCCC

What was measured:
His-HSF1 [1] = molecular target: T2, His-HSF1 (human, UniProt Q00613 1-529); assay: EMSA
His-HSF1 [2] = molecular target: T2, His-HSF1; assay: EMSA; remark: listed apart in the source
[3] = molecular target: T1, endogenous HSF1 of CEM-GFP cells (human …); assay: cross-linking; conditions: remark: other sources report otherwise

Row | Binder | binding result (His-HSF1 [1]) | other results
1 | B1 | no binding | 
2 | B2 |  | binding result (His-HSF1 [2]): binds
3 | B3 |  | stoichiometry N [3]: 3
4 | B4 | no binding | 
5 | B5 | no binding | 
